Data taken from US20240238459A1, “Granzyme-Activatable Membrane-Interacting Peptides and Methods of Use” (priority 2021, published 2024).
Ends that are not written are not given here.

Experiments:
granzyme B [1] = target: T1, granzyme B (Homo sapiens, UniProt P10144); experiment: Protease specificity of substrate sequence (FIG. 1F); format: biochemical; parameters: purchased; conditions: vs thrombin, caspase 3, caspase 8, granzyme K, MMP9, C1S; enzymes 5 nM, substrate 60 μM, 37° C., PBS, 1 mM DTT, pH 7.4
Description: The substrate sequence FVQWFSKFLGK (SEQ ID NO:3) was assessed for specificity for granzyme B compared to thrombin, caspase 3, caspase 8, granzyme K, MMP9, and C1S at 5 nM concentrations with substrate at 60 μM, 37° C., and buffer of PBS, 1 mM DTT, and pH 7.4.

human erythrocytes = experiment: Toxicity assay measuring hemolysis of human erythrocytes; conditions: in vitro, 1 hr at 37° C., hemoglobin release OD 540 nm
Description: Blood from healthy anonymous donors was harvested from Trima Leukoreduction chambers (Vitalant, San Francisco CA). Erythrocytes were isolated from the anonymous blood samples. Full-length GRIP B and activated GRIP B were measured for their hemolytic activity on healthy human erythrocytes in triplicate. Aliquots of human erythrocytes were suspended in PBS (pH 7.4) and incubated with serial dilutions of both peptides which were initially solubilized in DMSO. DMSO and 1% Triton X-100 were incubated in parallel as negative and positive controls, respectively. Incubation was for 1 hr at 37° C. After incubation, the samples were centrifuged for 5 min at 2,000×g upon which the supernatant was collected. Supernatant was measured for the release of hemoglobin by the erythrocytes using a BioTek H4 multimode plate reader, monitoring the optical density of the supernatant at a wavelength of 540 nm.

granzyme B [2] = target: T1, granzyme B; experiment: In vitro kinetics of quenched fluorogenic peptide proteolysis by GZMB; format: biochemical; conditions: Michaelis-Menten kinetics (FIG. 1D)

T1 sequence (P10144 21-247): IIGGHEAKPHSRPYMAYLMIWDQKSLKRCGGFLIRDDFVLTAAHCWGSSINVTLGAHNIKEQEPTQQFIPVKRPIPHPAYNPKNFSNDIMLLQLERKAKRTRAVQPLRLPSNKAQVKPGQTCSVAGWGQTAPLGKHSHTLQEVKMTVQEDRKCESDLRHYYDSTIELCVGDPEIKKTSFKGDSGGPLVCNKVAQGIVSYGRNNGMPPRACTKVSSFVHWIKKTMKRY

For FVQWFSKFLGK, the “specificity for granzyme B compared to other proteases” value (granzyme B [1]) was “highly specific for granzyme B”.
With FVQWFSKFLGKIEPDVSQVQDPNDQYEPF [GRIP B] the “toxicity toward human red blood cells” value (human erythrocytes) was “not to display toxicity”.
For “IEPDVSQV (ends and bridges not checked) [NH2-K(MCA)IEPDVSQVK(DNP)-COOH]”, the “improved catalytic turnover compared to IEPD alone” value (granzyme B [2]) was “approximately 2 fold”.
